T1: NDP52(1-126) (human, UniProt Q13137 1-126)
T1 sequence (looked up): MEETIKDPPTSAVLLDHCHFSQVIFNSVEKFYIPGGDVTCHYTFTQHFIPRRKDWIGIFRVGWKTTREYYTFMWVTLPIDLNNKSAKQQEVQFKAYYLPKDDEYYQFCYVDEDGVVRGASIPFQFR

T2: NDP52(1-126) T39E (human, UniProt Q13137 1-126, T39E)
T2 sequence (looked up): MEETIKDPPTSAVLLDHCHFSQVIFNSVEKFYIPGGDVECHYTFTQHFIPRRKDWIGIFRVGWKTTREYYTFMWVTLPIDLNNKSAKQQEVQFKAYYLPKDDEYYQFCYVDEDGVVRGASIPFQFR

T3: NDP52(10-126) F20Q (human, UniProt Q13137 10-126, F20Q)
T3 sequence (looked up): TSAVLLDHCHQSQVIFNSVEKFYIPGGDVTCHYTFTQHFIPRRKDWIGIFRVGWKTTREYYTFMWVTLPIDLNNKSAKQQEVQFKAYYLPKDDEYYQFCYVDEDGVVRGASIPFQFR

T4: NDP52(10-126) (human, UniProt Q13137 10-126)
T4 sequence (looked up): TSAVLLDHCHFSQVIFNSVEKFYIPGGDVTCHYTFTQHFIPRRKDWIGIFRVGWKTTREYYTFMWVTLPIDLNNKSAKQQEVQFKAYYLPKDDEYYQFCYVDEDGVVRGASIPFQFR


Key:
NDP52(1-126) = biological target: T1, NDP52(1-126); assay: ITC
AUC = biological target: the molecule itself; assay: AUC
NDP52(1-126) T39E = biological target: T2, NDP52(1-126) T39E; assay: ITC
TAX1BP1(1-121) S25E = TAX1BP1(1-121) S25E (human, UniProt Q86VP1 1-121, S25E); assay: ITC
TAX1BP1(1-121) = TAX1BP1(1-121) (human, UniProt Q86VP1 1-121); assay: ITC
NDP52(10-126) F20Q = biological target: T3, NDP52(10-126) F20Q; assay: ITC
NDP52(10-126) [1] = biological target: T4, NDP52(10-126); assay: AUC
NDP52(10-126) [2] = biological target: T4, NDP52(10-126); assay: crystal structure

Sequence of TAX1BP1(1-121) (Q86VP1 1-121): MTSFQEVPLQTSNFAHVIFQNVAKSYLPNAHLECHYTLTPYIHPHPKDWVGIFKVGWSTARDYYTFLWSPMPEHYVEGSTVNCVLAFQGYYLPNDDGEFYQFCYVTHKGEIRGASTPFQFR
Sequence of TAX1BP1(1-121) S25E (Q86VP1 1-121 S25E): as the sequence (Q86VP1 1-121) above, with S25E counted along it

Kd (NDP52(1-126))	binding result (NDP52(1-126) T39E)	binding result (TAX1BP1(1-121) S25E)	Kd (TAX1BP1(1-121))	binding result (NDP52(10-126) F20Q)	stoichiometry N (NDP52(10-126) [1])	stoichiometry N (NDP52(10-126) [2])	Binder	stoichiometry N (AUC)
~1490 nM							NAP1(1-85) (domain or fragment, human, UniProt Q9H6S1 1-85, looked up) MDALVEDDICILNHEKAHKRDTVTPVSIYSGDESVASHFALVTAYEDIKKRLKDSEKENSLLKKRIRFLEEKLIARFEEETSSVG	
~1800 nM							NAP1(1-75) (domain or fragment, human, UniProt Q9H6S1 1-75, looked up) MDALVEDDICILNHEKAHKRDTVTPVSIYSGDESVASHFALVTAYEDIKKRLKDSEKENSLLKKRIRFLEEKLIA	
~1150 nM	binds	binds	~2050 nM	binds	2 NDP52(10-126) molecules per NAP1(33-75) dimer	1 NDP52 chains per NAP1 chain (2:2)	ESVASHFALVTAYEDIKKRLKDSEKENSLLKKRIRFLEEKLIA (domain or fragment, human, UniProt Q9H6S1 33-75, looked up) [NAP1(33-75)]	2

Reference: paper doi:10.1101/264085 (bioRxiv, 2018)
